Assay [1] has as its target T1, rhesus γc protein (extracellular domain), purified (rhesus (Macaca mulatta), UniProt P31785 23-254 (human entry)).
T1 construct: also called rhesus (Macaca mulatta) γc
T1 chain: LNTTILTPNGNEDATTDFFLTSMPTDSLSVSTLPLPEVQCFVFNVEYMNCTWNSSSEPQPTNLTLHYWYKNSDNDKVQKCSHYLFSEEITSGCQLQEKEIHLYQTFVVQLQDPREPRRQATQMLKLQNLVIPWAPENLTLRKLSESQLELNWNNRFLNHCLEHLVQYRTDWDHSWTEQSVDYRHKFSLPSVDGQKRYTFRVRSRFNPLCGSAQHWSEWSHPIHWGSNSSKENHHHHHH
The assay is described as follows: ELISA, strip coated with 1 µg/ml rhesus γc, antibody in 5-fold dilutions from 10 to 0.00064 µg/ml, OD 450 nm. The protocol:
(§1) The ELISA strip was coated with 1 μg/ml γc protein from each species. Antibody was diluted 5-fold each from 10 μg/ml to 0.00064 μg/ml.
(An ELISA detects its analyte on a solid surface through an enzyme-linked reagent.)

A further assay concerns the target T2, Rhesus (Macaca mulatta, UniProt A0A5F8A3G1).
T2 construct: full length, on the cell surface; the purified extracellular domain is 1.m23; also called rhesus γc protein, full length, on HEK-293 cells
T2 sequence (receptor chain): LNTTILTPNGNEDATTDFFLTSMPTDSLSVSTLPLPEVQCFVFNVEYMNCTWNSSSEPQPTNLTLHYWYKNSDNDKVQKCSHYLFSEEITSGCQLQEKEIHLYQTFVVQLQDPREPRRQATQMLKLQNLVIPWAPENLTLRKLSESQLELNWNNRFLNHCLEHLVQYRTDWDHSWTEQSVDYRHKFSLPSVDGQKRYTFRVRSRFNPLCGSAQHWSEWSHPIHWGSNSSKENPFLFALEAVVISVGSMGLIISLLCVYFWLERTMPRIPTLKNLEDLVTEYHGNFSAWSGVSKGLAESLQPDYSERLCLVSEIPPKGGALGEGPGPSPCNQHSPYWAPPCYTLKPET
The assay can be described thus: flow cytometry, FITC-hSM-05A on HEK-293 cells transfected with full-length rhesus γc, N=3. The protocol: In brief, hSM-05A was fluorescently labelled with FITC. HEK-293 cells were transfected with the plasmids expressing the full-length γc proteins from different species for 2 days before the incubation with the fluorescent antibodies for flow cytometry analyses. […] All antibodies were administrated at 33 nM (5 μg/ml). C=non-transfected control; Hu: Humans; Rh: Rhesus monkey; Cy: Cynomolgus; Ma: Common marmoset. N=3 for all groups.
The binding specificities of humanized anti-γc antibodies to native γc proteins were further evaluated by […] binding assay. In brief, human HEK-293 cells were transfected with plasmid expressing full length γc protein from human, rhesus, cynomolgus or common marmoset. Two days later, transfected cells or non-transfected controls were incubated with FITC-conjugated hSM-05A on ice for an hour before analysis by flow cytometry.

Assay [2] addresses T3, rabbit γc protein (extracellular domain), purified (rabbit (Oryctolagus cuniculus)).
T3 construct: also called rabbit (Oryctolagus cuniculus) γc
T3 chain: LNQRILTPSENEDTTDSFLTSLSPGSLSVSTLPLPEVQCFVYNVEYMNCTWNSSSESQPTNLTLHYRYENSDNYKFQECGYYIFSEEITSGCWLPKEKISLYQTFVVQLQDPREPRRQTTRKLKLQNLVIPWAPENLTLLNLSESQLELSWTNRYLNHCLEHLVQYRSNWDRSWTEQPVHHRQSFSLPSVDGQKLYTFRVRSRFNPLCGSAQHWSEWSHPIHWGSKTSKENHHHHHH
The assay is described as follows: ELISA, strip coated with 1 µg/ml rabbit γc, antibody in 5-fold dilutions from 10 to 0.00064 µg/ml, OD 450 nm. The protocol: as §1
(§2) Humanized antibodies with back-mutation (hSM-05A and hSM-05E) were tested in the following assays. Binding affinities were investigated in the ELISA assays.

Assay [3] concerns the target T4, cynomolgus γc protein (extracellular domain), purified (cynomolgus (Macaca fascicularis), UniProt P31785 23-254 (human entry)).
T4 construct: Purchased from Sino Biological or in-house; also called cynomolgus (Macaca fascicularis) γc
T4 chain: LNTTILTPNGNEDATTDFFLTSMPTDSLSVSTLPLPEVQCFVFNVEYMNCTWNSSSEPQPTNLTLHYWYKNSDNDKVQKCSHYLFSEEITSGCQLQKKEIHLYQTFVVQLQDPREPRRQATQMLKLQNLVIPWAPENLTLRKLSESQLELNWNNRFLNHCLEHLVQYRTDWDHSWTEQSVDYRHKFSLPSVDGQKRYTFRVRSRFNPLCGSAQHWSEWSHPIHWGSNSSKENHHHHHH
The assay is described as follows: ELISA, strip coated with 1 µg/ml cynomolgus γc, antibody in 5-fold dilutions from 10 to 0.00064 µg/ml, OD 450 nm; curve near baseline up to about 0.08 µg/ml, rises to about 1.35 at 10 µg/ml, no upper plateau. The protocol:
as §1

The target in assay [4] is T5, human γc protein (extracellular domain), purified (human (Homo sapiens), UniProt P31785 23-262).
T5 construct: Either purchased from Sino Biological or in-house generated; also called human common gamma chain; CD132; not shown: which was used i
T5 sequence: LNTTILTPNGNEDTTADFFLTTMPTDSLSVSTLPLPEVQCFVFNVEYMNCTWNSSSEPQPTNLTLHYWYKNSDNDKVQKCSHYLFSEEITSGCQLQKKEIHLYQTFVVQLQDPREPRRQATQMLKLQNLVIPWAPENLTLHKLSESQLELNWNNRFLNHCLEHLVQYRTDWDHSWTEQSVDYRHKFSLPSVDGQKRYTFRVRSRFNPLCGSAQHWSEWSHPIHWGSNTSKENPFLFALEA
The assay can be described thus: ELISA, strip coated with 1 µg/ml human γc, antibody in 5-fold dilutions from 10 to 0.00064 µg/ml, OD 450 nm. The protocol: as §1

For assay [5], the target named is T6, chimpanzee γc protein (extracellular domain), purified (chimpanzee (Pan troglodytes), UniProt P31785 23-262).
T6 construct: also called chimpanzee (Pan troglodytes) γc
T6 sequence: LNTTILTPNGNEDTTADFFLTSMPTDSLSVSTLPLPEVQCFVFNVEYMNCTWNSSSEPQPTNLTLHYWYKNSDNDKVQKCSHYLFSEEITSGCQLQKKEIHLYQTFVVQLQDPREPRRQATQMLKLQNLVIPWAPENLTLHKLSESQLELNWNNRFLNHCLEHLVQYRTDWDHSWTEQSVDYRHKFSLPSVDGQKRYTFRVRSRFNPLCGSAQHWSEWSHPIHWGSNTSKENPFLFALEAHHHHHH
The assay is described as follows: ELISA, strip coated with 1 µg/ml chimpanzee γc, antibody in 5-fold dilutions from 10 to 0.00064 µg/ml, OD 450 nm. The protocol:
as §1

For assay [6], the target named is T7, common marmoset γc protein (extracellular domain), purified (common marmoset (Callithrix jacchus), UniProt P31785 26-262 (human entry)).
T7 construct: also called common marmoset (Callithrix jacchus) γc
T7 chain: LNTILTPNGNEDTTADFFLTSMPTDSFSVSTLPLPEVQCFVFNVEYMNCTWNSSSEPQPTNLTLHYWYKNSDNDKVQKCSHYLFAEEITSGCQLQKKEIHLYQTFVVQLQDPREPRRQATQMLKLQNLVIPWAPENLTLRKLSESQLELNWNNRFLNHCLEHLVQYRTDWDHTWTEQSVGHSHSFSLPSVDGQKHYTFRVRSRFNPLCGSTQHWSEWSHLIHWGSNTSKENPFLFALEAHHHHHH
The assay can be described thus: ELISA, strip coated with 1 µg/ml common marmoset γc, antibody in 5-fold dilutions from 10 to 0.00064 µg/ml, OD 450 nm. The protocol: as §1, §2

Assay [7] has as its target T1, rhesus γc protein (extracellular …). The assay is described as follows: ELISA, strip coated with 1 µg/ml rhesus γc, antibody in 5-fold dilutions from 10 to 0.00064 µg/ml, OD 450 nm; curve near baseline up to about 0.4 µg/ml, rises to about 0.8 at 10 µg/ml, no upper plateau. The protocol: as §1, §2
In assay [8] the target is T3, rabbit γc protein (extracellular …). The assay can be described thus: ELISA, strip coated with 1 µg/ml rabbit γc, antibody in 5-fold dilutions from 10 to 0.00064 µg/ml, OD 450 nm. The protocol:
as §1

The target of assay [9] is T4, cynomolgus γc protein (extracellular …). The assay is described as follows: ELISA, strip coated with 1 µg/ml cynomolgus γc, antibody in 5-fold dilutions from 10 to 0.00064 µg/ml, OD 450 nm; curve rises to about 1.6 at 10 µg/ml, no upper plateau. The protocol:
as §1, §2

Assay [10] has as its target T5, human γc protein (extracellular …). The assay can be described thus: ELISA, strip coated with 1 µg/ml human γc, antibody in 5-fold dilutions from 10 to 0.00064 µg/ml, OD 450 nm. The protocol: as §1, §2
This is another data set of the same source.

Like-named read-outs stand apart in the source and are kept apart here.

For orientation: EC50 means the concentration giving half of the maximal effect. Low values mean greater potency, high ones weaker potency.

B1: hSM-05A, humanized anti-γc antibody with back-mutation (antibody, V domains shown)
VH: QVQLVQSGAEVLKPGASVKVSCKASGYTFTEYTMHWVKQARGQRLEWIGGIDPYNGGATYNQRFKGKATLTTDTSTSTAYMELRNLRSDDTAVYYCARRRLYYGNALDYWGQGTLVTVSS
VL: DIVMTQSPLSLPVTPGEQASISCRSSQSLVHSNGNTYLHWYLQKPGQSPQLLIYKVSSRFSGVPDRFSGSGSGTDFTLKISRVEAEDVGVYFCSQTTHVPFTFGSGTKLEIKR
notes: Full-length humanized antibody; also called humanized (h) SM-05A; hbSM-05A
Consider B1, for which the binding result is “no binding (tested: 10 µg/ml)” in assay [1], “no binding (tested: 5 µg/ml (33 nM))” in the assay with Rhesus and “no binding (tested: 10 µg/ml)” in assay [2]. The EC50 in [3] is 9.56 µg/mL; in assay [4], 0.02 µg/mL; in assay [5], 0.06 µg/mL; in assay [6] it was 0.04 µg/mL.

B2: hSM-05E, humanized anti-γc antibody with back-mutation (antibody, V domains shown)
VH: QVQLVQSGAEVLKPGASVKVSCKASGYTFTEYTMHWVKQARGQRLEWIGGIDPNTGGVTYNQKFKGKATLTTDTSTSTAYMELRNLRSDDTAVYYCARRRRYYGYALDYWGQGTLVTVSS
VL: DIVMTQSPLSLPVTPGEQASISCRSSQSIVHSNGNTYLEWYLQKPGQSPQLLIYKVSNRFSGVPDRFSGSGSGTDFTLKISRVEAEDVGVYFCSQSTHVPFMFGSGTKLEIKR
notes: Full-length humanized antibody; also called humanized SM-05E; hbSM-05E
As to B2, the EC50 in assay [5] turned out to be 0.17 µg/mL; in [7], 6.3 µg/mL; in assay [6] it was 0.17 µg/mL; in [9], 5.78 µg/mL; in assay [10], 0.02 µg/mL. In addition, the binding result in assay [8] is given as “no binding (tested: 10 µg/ml)”.

(Values after patent publication US20260209365A1, “ANTI-COMMON GAMMA CHAIN PROTEINS AND COMPOSITIONS OF MATTER” (SINOMAB BIOSCIENCE LIMITED, priority 2023, published 2026).)
